Measured values reported in US20240108651A1 (THOMAS JEFFERSON UNIVERSITY, published 2024).
Values belong to the binder of their own block, whether it stands above or below them.

Target: T1, human desmoglein 2 (Dsg2) on cells (human, UniProt Q14126 50-1118)
T1 construct: whole, on cells; also called huma Dsg2; hDsg2
T1 sequence (looked up): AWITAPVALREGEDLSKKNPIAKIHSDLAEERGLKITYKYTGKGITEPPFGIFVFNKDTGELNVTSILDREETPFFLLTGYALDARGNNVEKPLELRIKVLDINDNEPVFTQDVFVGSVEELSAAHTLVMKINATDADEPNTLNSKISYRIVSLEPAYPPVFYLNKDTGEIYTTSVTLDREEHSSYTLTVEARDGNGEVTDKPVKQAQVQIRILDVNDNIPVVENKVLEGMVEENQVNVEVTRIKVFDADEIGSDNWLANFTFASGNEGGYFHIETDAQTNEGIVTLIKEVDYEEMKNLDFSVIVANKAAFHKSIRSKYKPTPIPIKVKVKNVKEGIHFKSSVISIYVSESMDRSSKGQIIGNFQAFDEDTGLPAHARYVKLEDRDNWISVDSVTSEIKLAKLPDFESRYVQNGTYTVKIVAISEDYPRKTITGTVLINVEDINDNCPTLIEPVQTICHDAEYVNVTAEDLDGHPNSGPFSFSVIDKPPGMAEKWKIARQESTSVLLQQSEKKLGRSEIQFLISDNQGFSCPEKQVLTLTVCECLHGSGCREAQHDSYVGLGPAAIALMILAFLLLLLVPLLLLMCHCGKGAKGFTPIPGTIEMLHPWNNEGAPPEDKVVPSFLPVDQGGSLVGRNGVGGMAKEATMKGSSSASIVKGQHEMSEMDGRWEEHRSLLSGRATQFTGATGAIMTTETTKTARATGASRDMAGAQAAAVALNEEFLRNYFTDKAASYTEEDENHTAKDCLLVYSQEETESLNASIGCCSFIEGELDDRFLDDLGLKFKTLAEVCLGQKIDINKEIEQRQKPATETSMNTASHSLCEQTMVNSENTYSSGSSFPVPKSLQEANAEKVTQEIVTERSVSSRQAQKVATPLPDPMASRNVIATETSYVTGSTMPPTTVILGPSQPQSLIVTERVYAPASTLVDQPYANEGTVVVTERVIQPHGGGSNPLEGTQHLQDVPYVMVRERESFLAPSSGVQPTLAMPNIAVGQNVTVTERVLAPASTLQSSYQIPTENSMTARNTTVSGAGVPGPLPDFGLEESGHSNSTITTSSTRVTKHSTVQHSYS
Test: legend of FIG. 5: Dsg2 domain scheme; immunoblot and immunostaining of A431 SCC cells
Source text: P, Pro-region; EC, Extracellular Domain; TM, Transmembrane; IA, Intracellular Anchoring, ICS, Intracellular Cadherin Segment; LD, Linker Domain; RUD, Repeat Unit Domain; TD, Terminal Domain. 10D2 recognizes EC1 while 6D8 recognizes EC4. For FIG. 5B and FIG. 5C, A431 SCC was immunoblotted (FIG. 5B) or immunostained (FIG. 5C) with mAbs 6D8 and 10D2.

binding result: binds
B1: mAb 6D8 (antibody, V domains shown)
VH: QIQLVQSGPELKKPGETVKISCKASGYTFTNYGMNWVKQAPGRGLKWMGWINTYTGNPTYADDFKGRFDFSLETSASTAYLQINNLKNEDMAIYFCARDRGNSFDYWGQGTTLTVSS
VL: DIQMTQSPASLSVSVGETVTITCRASENIYSNLAWYQQKQGKSPQLLVYIAINLADGVPSRFSGSGSGTQYSLKINSLQSEDFGNYYCQHFWGTPRTFGGGTKLEIK
notes: Monoclonal antibody from a hybridoma; also called 6D8 Antibody; 6D8 mAb

binding result: binds
B2: mAb 10D2 (antibody, V domains shown)
VH: EVQLQQSGPELVNPGASVKMSCKASGYSFTSYILHWVKQKPGQGLEWIGYINPYNDATKYNEKFKGKATLTSDKSSSTAYMELSSVTSEDSAVYYCCSMITTAYWAYWGQGTLVTVSA
VL: NIMMTQSPSSLTVSAGEKVTMSCKSSQSILYGSTQKNYLAWYQQKPGQSPKLLIYWASTRESGVPDRFTGSGSGTDFTLTISSVQAEDLAVYYCHQYLSSYTFGGGTKLEIK
notes: Monoclonal antibody from a hybridoma; also called 10D2 Antibody; 10D2 mAb
